Test results reported in paper PMC11764276 (2024).
Read-outs that look alike come from different tables or passages of the source.

How the values were obtained:
Assay in all cases: SPR
[1] = target: T1, RBD (residues 334–527 of the SARS-CoV-2 spike glycoprotein) (SARS-CoV-2, UniProt P0DTC2 334-527)
[2] = target: T1, RBD (residues 334–527 of the SARS-CoV-2 …); remark: listed apart in the source
[3] = target: T1, RBD (residues 334–527 of the SARS-CoV-2 …); remark: listed apart in the source

Row | Binder | koff [1] [s⁻¹] | Kd [2] [nM] | Kd [3] [nM]
1 | 2196_CDRL3_RP (antibody, V domains shown) VH: QMQLVQSGPEVKKPGTSVKVSCKASGFTFMSSAVQWVRQARGQRLEWIGWIVIGSGNTNYAQKFQERVTITRDMSTSTAYMELSSLRSEDTAVYYCAAPYCSSISCNDGFDIWGQGTMVTVSS VL: not shown | 0.12 | 204 | 203
2 | 2196_CDRL1_des2 (antibody, V domains shown) VH: QMQLVQSGPEVKKPGTSVKVSCKASGFTFMSSAVQWVRQARGQRLEWIGWIVIGSGNTNYAQKFQERVTITRDMSTSTAYMELSSLRSEDTAVYYCAAPYCSSISCNDGFDIWGQGTMVTVSS VL: EIVLTQSPGTLSLSPGERATLSCRASQTISNSYVAWYQQKPGQAPRLLIYGASSRATGIPDRFSGSGSGTDFTLTISRLEPEDFAVYYCQHYGSSRGWTFGQGTKVEIK | 0.0216 |  | 
3 | DMAb-2196_CDRL3_P (antibody, V domains shown) VH: QMQLVQSGPEVKKPGTSVKVSCKASGFTFMSSAVQWVRQARGQRLEWIGWIVIGSGNTNYAQKFQERVTITRDMSTSTAYMELSSLRSEDTAVYYCAAPYCSSISCNDGFDIWGQGTMVTVSS VL: not shown | 0.1 |  | 88.5
4 | 2196 HC + 2072 LC (antibody, V domains shown) VH: QMQLVQSGPEVKKPGTSVKVSCKASGFTFMSSAVQWVRQARGQRLEWIGWIVIGSGNTNYAQKFQERVTITRDMSTSTAYMELSSLRSEDTAVYYCAAPYCSSISCNDGFDIWGQGTMVTVSS VL: not shown | 0.0309 |  | 
5 | 2196_CDRL1_des1 (antibody, V domains shown) VH: QMQLVQSGPEVKKPGTSVKVSCKASGFTFMSSAVQWVRQARGQRLEWIGWIVIGSGNTNYAQKFQERVTITRDMSTSTAYMELSSLRSEDTAVYYCAAPYCSSISCNDGFDIWGQGTMVTVSS VL: EIVLTQSPGTLSLSPGERATLSCRASQTISNNFVAWYQQKPGQAPRLLIYGASSRATGIPDRFSGSGSGTDFTLTISRLEPEDFAVYYCQHYGSSRGWTFGQGTKVEIK | 0.0823 |  | 47.6
6 | 2196 WT (recombinant mAb COV2-2196) (antibody, V domains shown) VH: QMQLVQSGPEVKKPGTSVKVSCKASGFTFMSSAVQWVRQARGQRLEWIGWIVIGSGNTNYAQKFQERVTITRDMSTSTAYMELSSLRSEDTAVYYCAAPYCSSISCNDGFDIWGQGTMVTVSS VL: not shown | 0.0133 |  | 
7 | 2196_CDRL3_Q (antibody, V domains shown) VH: QMQLVQSGPEVKKPGTSVKVSCKASGFTFMSSAVQWVRQARGQRLEWIGWIVIGSGNTNYAQKFQERVTITRDMSTSTAYMELSSLRSEDTAVYYCAAPYCSSISCNDGFDIWGQGTMVTVSS VL: not shown | 0.0171 |  | 
8 | 2196_CDRL3_GP (antibody, V domains shown) VH: QMQLVQSGPEVKKPGTSVKVSCKASGFTFMSSAVQWVRQARGQRLEWIGWIVIGSGNTNYAQKFQERVTITRDMSTSTAYMELSSLRSEDTAVYYCAAPYCSSISCNDGFDIWGQGTMVTVSS VL: not shown | 0.0133 |  | 
